Laboratory results: publication PMC6604950, “The ChlD subunit links the motor and porphyrin binding subunits of magnesium chelatase” (Biochemical Journal, 2019)

T1: ChlH (purified recombinant, Synechocystis) (Synechocystis sp. PCC 6803, UniProt P73020 1-1331, labelled with NHS-NT647 dye in the MST experiments; activated with EDC/NHS in the cross-linking experiment)
T1 sequence (looked up): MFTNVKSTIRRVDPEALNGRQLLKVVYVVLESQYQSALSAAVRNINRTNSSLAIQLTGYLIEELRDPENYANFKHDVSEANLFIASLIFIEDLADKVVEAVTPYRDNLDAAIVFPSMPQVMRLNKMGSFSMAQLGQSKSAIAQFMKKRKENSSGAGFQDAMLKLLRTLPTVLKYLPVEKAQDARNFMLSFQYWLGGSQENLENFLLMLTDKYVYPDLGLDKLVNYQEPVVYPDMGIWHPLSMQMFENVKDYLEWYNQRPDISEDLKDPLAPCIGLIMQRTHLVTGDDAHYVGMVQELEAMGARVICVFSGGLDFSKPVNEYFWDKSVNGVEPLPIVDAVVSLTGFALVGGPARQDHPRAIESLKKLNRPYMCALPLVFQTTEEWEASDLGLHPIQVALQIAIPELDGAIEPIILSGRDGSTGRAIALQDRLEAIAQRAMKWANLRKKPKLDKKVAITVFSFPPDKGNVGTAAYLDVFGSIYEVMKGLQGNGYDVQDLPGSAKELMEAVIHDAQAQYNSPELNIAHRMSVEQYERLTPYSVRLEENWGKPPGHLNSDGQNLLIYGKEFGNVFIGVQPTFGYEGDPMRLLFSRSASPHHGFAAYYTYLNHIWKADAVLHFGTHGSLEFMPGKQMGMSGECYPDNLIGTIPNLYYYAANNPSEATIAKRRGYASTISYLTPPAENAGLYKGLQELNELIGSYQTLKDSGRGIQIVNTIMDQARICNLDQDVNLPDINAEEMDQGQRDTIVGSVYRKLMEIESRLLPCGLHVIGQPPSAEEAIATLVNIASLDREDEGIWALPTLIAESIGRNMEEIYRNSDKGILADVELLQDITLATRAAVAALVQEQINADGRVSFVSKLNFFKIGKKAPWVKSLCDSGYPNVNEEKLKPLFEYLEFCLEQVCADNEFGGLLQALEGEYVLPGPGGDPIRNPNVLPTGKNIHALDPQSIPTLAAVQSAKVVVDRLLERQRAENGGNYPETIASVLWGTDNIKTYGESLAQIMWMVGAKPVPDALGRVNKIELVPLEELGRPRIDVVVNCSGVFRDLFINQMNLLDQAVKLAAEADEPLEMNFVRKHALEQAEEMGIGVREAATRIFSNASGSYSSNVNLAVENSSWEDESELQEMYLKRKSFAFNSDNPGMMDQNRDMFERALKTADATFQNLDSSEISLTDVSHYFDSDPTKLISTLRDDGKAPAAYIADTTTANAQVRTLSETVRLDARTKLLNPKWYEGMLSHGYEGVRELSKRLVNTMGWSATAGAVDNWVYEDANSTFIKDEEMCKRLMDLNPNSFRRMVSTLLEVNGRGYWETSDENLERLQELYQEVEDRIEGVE

B1: ChlD S554R (natural protein)
chain: not shown
notes: Magnesium chelatase subunit ChlD, Synechocystis sp; PCC 6803, MIDAS motif point mutant; also called type II MIDAS mutant; source: E. coli, purified as wild type
B2: ChlD wild type (purified recombinant, Synechocystis) (natural protein)
chain: not shown
modifications: labelled with NHS-NT647 dye where it was the labelled partner in MST (ChlD-ChlD titration)
notes: Magnesium chelatase subunit ChlD (~75 kDa), Synechocystis sp; PCC 6803; also called WT ChlD
B3: ChlD truncation A (AAA+ domain alone) (domain or fragment)
chain: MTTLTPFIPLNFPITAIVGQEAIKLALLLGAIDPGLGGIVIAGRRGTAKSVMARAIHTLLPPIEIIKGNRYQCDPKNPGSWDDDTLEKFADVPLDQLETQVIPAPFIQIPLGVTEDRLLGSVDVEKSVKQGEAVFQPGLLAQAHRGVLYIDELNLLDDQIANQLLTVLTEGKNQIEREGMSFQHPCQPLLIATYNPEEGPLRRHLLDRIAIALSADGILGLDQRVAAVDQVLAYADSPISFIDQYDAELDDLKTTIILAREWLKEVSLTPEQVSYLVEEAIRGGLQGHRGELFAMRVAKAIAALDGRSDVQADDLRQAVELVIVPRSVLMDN
B4: ChlD truncation B (AAA+ domain with the polyproline region) (domain or fragment)
chain: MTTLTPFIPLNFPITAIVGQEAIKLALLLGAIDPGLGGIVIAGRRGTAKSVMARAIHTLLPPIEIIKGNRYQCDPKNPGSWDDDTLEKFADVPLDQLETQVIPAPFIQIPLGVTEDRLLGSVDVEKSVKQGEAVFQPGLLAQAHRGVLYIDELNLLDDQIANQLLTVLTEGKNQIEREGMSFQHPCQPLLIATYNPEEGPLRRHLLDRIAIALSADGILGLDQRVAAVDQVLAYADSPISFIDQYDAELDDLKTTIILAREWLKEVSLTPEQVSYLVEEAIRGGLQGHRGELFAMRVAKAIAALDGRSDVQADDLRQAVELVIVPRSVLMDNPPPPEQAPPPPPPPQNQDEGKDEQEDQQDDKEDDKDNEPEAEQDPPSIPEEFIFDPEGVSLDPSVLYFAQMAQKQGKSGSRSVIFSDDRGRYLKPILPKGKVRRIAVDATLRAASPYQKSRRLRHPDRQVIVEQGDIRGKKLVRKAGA
B5: ChlD S489A (natural protein)
chain: not shown
notes: Magnesium chelatase subunit ChlD, Synechocystis sp; PCC 6803, MIDAS motif point mutant; also called MIDAS mutant; source: E. coli, purified as wild type
B6: ChlD QuinE (E510Q/E513Q/E600T/E603P/E605T) (natural protein)
chain: not shown
notes: Magnesium chelatase subunit ChlD, Synechocystis sp; also called quintuplet mutant of ChlD; source: E. coli, purified (as described previously)
B7: ChlD S491A (natural protein)
chain: not shown
notes: as for B5
B8: ChlD D487E (natural protein)
chain: not shown
notes: as for B5

Each binder was assayed against T1, ChlH (purified recombinant, …) (assay: cell-based or functional assay). Conditions: not given.

magnesium chelatase activity, rate relative to the wild-type protein [%] | Binder
~5 | B1

Target: the molecule itself
Test: MST; control ChlD-ChlD titration (Supplementary Figure S3); monomer to dimer
Conditions: not given

Binder | Kd [nM] | stoichiometry N
B2 | 296 | 2

What follows are binders tested against T1, ChlH (purified recombinant, …) (assay: MST; ChlD (or variant) titrated into 20 nM NT647-labelled ChlH; 50 mM Tris/NaOH, 0.2% Pluronic F-127, pH 7.8, without Mg2+; single-site model; Kd is an empirical description over all oligomeric states of ChlD). Conditions: both partners purified.

Kd [nM] | Binder
5930 | B3
6760 | B4
2100 | B2
3210 | B5
512 | B6
351 | B7
988 | B1
1490 | B8

These binders were tested against T1, ChlH (purified recombinant, …) (assay: MST; ChlD (or variant) titrated into 20 nM NT647-labelled ChlH; 50 mM Tris/NaOH, 0.2% Pluronic F-127, pH 7.8, with 10 mM Mg2+; single-site model; Kd is an empirical description over all oligomeric states of ChlD). Conditions: both partners purified.

Kd [nM] | Binder
14600 | B3
10500 | B4
331 | B2
1980 | B5
339 | B6
147 | B7
481 | B1
842 | B8
